From the supplement of paper PMC11246515 come the findings set out here.

± gives the standard deviation of the averaged measurements. A value given as a limit tells only on which side of the number the result lay.

This data set in a line: total protein half-life in vivo (active degradation + dilution); higher = more stable protein.
Where [1] appears, read: E. coli NCM3722 delta-clpP delta-lon delta-hslV, growth: N-lim chemostat, doubling time 6 h.
The mark [2] stands for this setting: E. coli NCM3722 delta-clpP, growth: N-lim chemostat, doubling time 6 h.
Where [3] appears, read: E. coli NCM3722 delta-hslV, growth: N-lim chemostat, doubling time 6 h.
The mark [4] stands for this setting: E. coli NCM3722 delta-lon, growth: N-lim chemostat, doubling time 6 h.
[5] abbreviates: E. coli NCM3722 delta-smpB, growth: N-lim chemostat, doubling time 6 h.
Setting [6] is: wild type E. coli NCM3722, growth: C-lim chemostat, doubling time 3 h.
[7] abbreviates: wild type E. coli NCM3722, growth: C-lim chemostat, doubling time 6 h.
[8] abbreviates: wild type E. coli NCM3722, growth: C-lim chemostat, doubling time 12 h.
Setting [9] is: wild type E. coli NCM3722, growth: N-lim chemostat, doubling time 6 h.
Where [10] appears, read: wild type E. coli NCM3722, growth: N-lim chemostat, doubling time 12 h.
[11] abbreviates: wild type E. coli NCM3722, growth: P-lim chemostat, doubling time 6 h.
Where [12] appears, read: wild type E. coli NCM3722, growth: P-lim chemostat, doubling time 12 h.

For “MPEVQTDHPETAELSKPQLRMVDLNLLTVFDAVMQEQNITRAAHVLGMSQPAVSNAVARLKVMFNDELFVRYGRGIQPTARAFQLFGSVRQALQLVQNELPGSGFEPASSERVFHLCVCSPLDSILTSQIYNHIEQIAPNIHVMFKSSLNQNTEHQLRYQETEFVISYEDFHRPEFTSVPLFKDEMVLVASKNHPTIKGPLLKHDVYNEQHAAVSLDRFASFSQPWYDTVDKQASIAYQGMAMMSVLSVVSQTHLVAIAPRWLAEEFAESLELQVLPLPLKQNSRTCYLSWHEAAGRDKGHQWMEEQLVSICKR”, the “total protein half-life in vivo” value under setting [1] was 5.69 ± 0.67 h and the “total protein half-life in vivo” value under setting [2] was 1.07 h.
As for “MRVTDFSFELPESLIAHYPMPERSSCRLLSLDGPTGALTHGTFTDLLDKLNPGDLLVFNNTRVIPARLFGRKASGGKIEVLVERMLDDKRILAHIRASKAPKPGAELLLGDDESINATMTARHGALFEVEFNDERSVLDILNSIGHMPLPPYIDRPDEDADRELYQTVYSEKPGAVAAPTAGLHFDEPLLEKLRAKGVEMAFVTLHVGAGTFQPVRVDTIEDHIMHSEYAEVPQDVVDAVLAAKARGNRVIAVGTTSVRSLESAAQAAKNDLIEPFFDDTQIFIYPGFQYKVVDALVTNFHLPESTLIMLVSAFAGYQHTMNAYKAAVEEKYRFFSYGDAMFITYNPQAINERVGE [P0A7F9]”, the “total protein half-life in vivo” value reads like this: under setting [1], 4.09 ± 0.78 h; under setting [2], 3.64 ± 0.2 h; under setting [3], 4.44 ± 1.4 h; under setting [4], 4.49 ± 0.24 h; under setting [5], 3.41 ± 0.096 h; under setting [6], 2.85 ± 0.04 h. Besides, the “total protein half-life in vivo” value stood at 4.82 ± 0.32 h under setting [7]; 7.45 ± 0.19 h under setting [8]; 3.66 ± 0.14 h under setting [9]; 5.03 ± 0.34 h under setting [10]; 5.46 ± 0.24 h under setting [11]; 9.48 ± 0.17 h under setting [12].
Turning to “MNKKIHSLALLVNLGIYGVAQAQEPTDTPVSHDDTIVVTAAEQNLQAPGVSTITADEIRKNPVARDVSKIIRTMPGVNLTGNSTSGQRGNNRQIDIRGMGPENTLILIDGKPVSSRNSVRQGWRGERDTRGDTSWVPPEMIERIEVLRGPAAARYGNGAAGGVVNIITKKGSGEWHGSWDAYFNAPEHKEEGATKRTNFSLTGPLGDEFSFRLYGNLDKTQADAWDINQGHQSARAGTYATTLPAGREGVINKDINGVVRWDFAPLQSLELEAGYSRQGNLYAGDTQNTNSDSYTRSKYGDETNRLYRQNYALTWNGGWDNGVTTSNWVQYEHTRNSRIPEGLAGGTEGKFNEKATQDFVDIDLDDVMLHSEVNLPIDFLVNQTLTLGTEWNQQRMKDLSSNTQALTGTNTGGAIDGVSTTDRSPYSKAEIFSLFAENNMELTDSTIVTPGLRFDHHSIVGNNWSPALNISQGLGDDFTLKMGIARAYKAPSLYQTNPNYILYSKGQGCYASAGGCYLQGNDDLKAETSINKEIGLEFKRDGWLAGVTWFRNDYRNKIEAGYVAVGQNAVGTDLYQWDNVPKAVVEGLEGSLNVPVSETVMWTNNITYMLKSENKTTGDRLSIIPEYTLNSTLSWQAREDLSMQTTFTWYGKQQPKKYNYKGQPAVGPETKEISPYSIVGLSATWDVTKNVSLTGGVDNLFDKRLWRAGNAQTTGDLAGANYIAGAGAYTYNEPGRTWYMSVNTHF”, the “total protein half-life in vivo” value is, setting by setting: under setting [2], 5.83 h; under setting [6], 3.068 ± 0.0056 h; under setting [7], 7.39 ± 0.36 h; under setting [8], 14.5 ± 2.1 h; under setting [9], 6.97 h; under setting [11], 6.6 h. Moreover, the “total protein half-life in vivo” value under setting [12] came to 12.3 h.
“MTLDLPRRFPWPTLLSVCIHGAVVAGLLYTSVHQVIELPAPAQPISVTMVTPADLEPPQAVQPPPEPVVEPEPEPEPIPEPPKEAPVVIEKPKPKPKPKPKPVKKVQEQPKRDVKPVESRPASPFENTAPARLTSSTATAATSKPVTSVASGPRALSRNQPQYPARAQALRIEGQVKVKFDVTPDGRVDNVQILSAKPANMFEREVKNAMRRWRYEPGKPGSGIVVNILFKINGTTEIQ”: the “total protein half-life in vivo” value came to 3.05 ± 0.064 h under setting [1]; 3.18 ± 0.081 h under setting [2]; 2.27 ± 0.21 h under setting [3]; 1.79 ± 0.029 h under setting [4]; 2.92 ± 1.7 h under setting [5]; 1.93 ± 0.35 h under setting [6]. Also, the “total protein half-life in vivo” value under setting [7] was determined as 3.6 ± 0.45 h; the “total protein half-life in vivo” value under setting [8] turned out to be 5.81 ± 0.11 h; the “total protein half-life in vivo” value under setting [9] turned out to be 2.33 ± 0.17 h; the “total protein half-life in vivo” value under setting [10] was determined as 3.29 ± 0.16 h; the “total protein half-life in vivo” value under setting [11] was 3.17 ± 0.13 h; the “total protein half-life in vivo” value under setting [12] is 6.09 ± 0.82 h.
Turning to “MKKIALAGLAGMLLVSASVNAMSISGQAGKEYTNIGVGFGTETTGLALSGNWTHNDDDGDVAGVGLGLNLPLGPLMATVGGKGVYTNPNYGDEGYAAAVGGGLQWKIGNSFRLFGEYYYSPDSLSSGIQSYEEANAGARYTIMRPVSIEAGYRYLNLSGKDGNRDNAVADGPYVGVNASF”, the “total protein half-life in vivo” value was above 8 h under setting [2]; above 8 h under setting [3]; 6.46 ± 1.8 h under setting [4]; 5.13 h under setting [5]; 2.53 ± 0.17 h under setting [6]; 4.53 ± 0.26 h under setting [9]. Moreover, the “total protein half-life in vivo” value runs as follows: under setting [11], 4.72 h; under setting [12], 13 h.
For the sequence “MLKRCLSPLTLVNQVALIVLLSTAIGLAGMAVSGWLVQGVQGSAHAINKAGSLRMQSYRLLAAVPLSEKDKPLIKEMEQTAFSAELTRAAERDGQLAQLQGLQDYWRNELIPALMRAQNRETVSADVSQFVAGLDQLVSGFDRTTEMRIETVVLVHRVMAVFMALLLVFTIIWLRARLLQPWRQLLAMASAVSHRDFTQRANISGRNEMAMLGTALNNMSAELAESYAVLEQRVQEKTAGLEHKNQILSFLWQANRRLHSRAPLCERLSPVLNGLQNLTLLRDIELRVYDTDDEENHQEFTCQPDMTCDDKGCQLCPRGVLPVGDRGTTLKWRLADSHTQYGILLATLPQGRHLSHDQQQLVDTLVEQLTATLALDRHQERQQQLIVMEERATIARELHDSIAQSLSCMKMQVSCLQMQGDALPESSRELLSQIRNELNASWAQLRELLTTFRLQLTEPGLRPALEASCEEYSAKFGFPVKLDYQLPPRLVPSHQAIHLLQIAREALSNALKHSQASEVVVTVAQNDNQVKLTVQDNGCGVPENAIRSNHYGMIIMRDRAQSLRGDCRVRRRESGGTEVVVTFIPEKTFTDVQGDTHE [P0AFA2]”, the “total protein half-life in vivo” value worked out at 6.01 ± 0.078 h under setting [1]; 6.25 ± 0.066 h under setting [2]; 5.32 ± 0.25 h under setting [4]; 5.44 ± 0.34 h under setting [5]; 3.11 ± 0.058 h under setting [6]; 5.44 ± 0.39 h under setting [7]. Moreover, the “total protein half-life in vivo” value runs as follows: under setting [8], 10.9 ± 0.31 h; under setting [9], 5.65 ± 0.069 h; under setting [10], 11.1 ± 0.78 h; under setting [11], 6.05 ± 0.12 h; under setting [12], 11 ± 1.5 h.
For “MKKVLIAALIAGFSLSATAAETIRFATEASYPPFESIDANNQIVGFDVDLAQALCKEIDATCTFSNQAFDSLIPSLKFRRVEAVMAGMDITPEREKQVLFTTPYYDNSALFVGQQGKYTSVDQLKGKKVGVQNGTTHQKFIMDKHPEITTVPYDSYQNAKLDLQNGRIDGVFGDTAVVTEWLKDNPKLAAVGDKVTDKDYFGTGLGIAVRQGNTELQQKLNTALEKVKKDGTYETIYNKWFQK”, the “total protein half-life in vivo” value stood at 5.31 ± 0.27 h under setting [1]; 5.44 ± 0.31 h under setting [2]; 6.55 ± 0.075 h under setting [3]; 7.11 ± 0.09 h under setting [4]; 6.01 ± 0.43 h under setting [5]; 3.16 ± 0.44 h under setting [6]. Further, the “total protein half-life in vivo” value under setting [7] is 5.9 ± 0.34 h; the “total protein half-life in vivo” value under setting [8] was found to be 11.55 ± 0.079 h; the “total protein half-life in vivo” value under setting [9] was found to be 5.64 ± 0.36 h; the “total protein half-life in vivo” value under setting [10] was found to be 12.2 ± 0.92 h; the “total protein half-life in vivo” value under setting [11] came out at 6.04 ± 0.31 h; the “total protein half-life in vivo” value under setting [12] is 12.2 ± 0.73 h.
